B1: Protease type XI: Protease type XI Tritirachium album Proteinase K, supplier Sigma (protein, UniProt P06873 106-384, looked up)
Proteinase K: AAQTNAPWGLARISSTSPGTSTYYYDESAGQGSCVYVIDTGIEASHPEFEGRAQMVKTYYYSSRDGNGHGTHCAGTVGSRTYGVAKKTQLFGVKVLDDNGSGQYSTIIAGMDFVASDKNNRNCPKGVVASLSLGGGYSSSVNSAAARLQSSGVMVAVAAGNNNADARNYSPASEPSVCTVGASDRYDRRSSFSNYGSVLDIFGPGTSILSTWIGGSTRSISGTSMATPHVAGLAAYLMTLGKTTAASACRYIADTANKGDLSNIPFGTVNLLAYNNYQA
B2: Alcalase 1.5 M: Subtilisin A from B licheniformis, supplier Novo (protein, UniProt P00780 106-379, looked up)
Subtilisin Carlsberg: AQTVPYGIPLIKADKVQAQGFKGANVKVAVLDTGIQASHPDLNVVGGASFVAGEAYNTDGNGHGTHVAGTVAALDNTTGVLGVAPSVSLYAVKVLNSSGSGSYSGIVSGIEWATTNGMDVINMSLGGASGSTAMKQAVDNAYAKGVVVVAAAGNSGSSGNTNTIGYPAKYDSVIAVGAVDSNSNRASFSSVGAELEVMAPGAGVYSTYPTNTYATLNGTSMASPHVAGAAALILSKHPNLSASQVRNRLSSTATYLGSSFYYGKGLINVEAAAQ
B3: Protease Bacterial: Protease Bacterial (Subtilisin A) B Sublitisin, supplier CP (protein, UniProt P00780 106-379, looked up)
Subtilisin Carlsberg: B2 Subtilisin Carlsberg
B4: Proteinase D: Proteinase D (Subtilisin A) B licheniformis, supplier ABM (protein, UniProt P00780 106-379, looked up)
Subtilisin Carlsberg: B2 Subtilisin Carlsberg
B5: Subtilisin A: Subtilisin A, B licheniformis, supplier Novo; alkaline microbial serine proteinase EC 3.4.21.14 (protein, UniProt P00780 106-379, looked up)
Subtilisin Carlsberg: B2 Subtilisin Carlsberg
B6: Alcalase 0.6 L: Subtilisin A from B licheniformis, supplier Novo (protein, UniProt P00780 106-379, looked up)
Subtilisin Carlsberg: B2 Subtilisin Carlsberg
B7: Protease type VIII: Protease type VIII B subtilis, Subtilisin Carlsberg; Subtilopeptidase A, supplier Sigma (protein, UniProt P00780 106-379, looked up)
Subtilisin Carlsberg: B2 Subtilisin Carlsberg
B8: Protease type VII: Protease type VII B amyloliquefaciens, Nagarase; Subtilisin BPN, supplier Sigma (protein, UniProt P00782 108-382, looked up)
Subtilisin BPN': AQSVPYGVSQIKAPALHSQGYTGSNVKVAVIDSGIDSSHPDLKVAGGASMVPSETNPFQDNNSHGTHVAGTVAALNNSIGVLGVAPSASLYAVKVLGADGSGQYSWIINGIEWAIANNMDVINMSLGGPSGSAALKAAVDKAVASGVVVVAAAGNEGTSGSSSTVGYPGKYPSVIAVGAVDSSNQRASFSSVGPELDVMAPGVSIQSTLPGNKYGAYNGTSMASPHVAGAAALILSKHPNWTNTQVRSSLENTTTKLGDSFYYGKGLINVQAAAQ

assay: De-esterification of the penicillin C3 benzyl ester by a number of enzymes, ester disappearance assayed by HPLC; format: biochemical; settings: enzyme solution 0.2 ml (5 mg/ml) plus ester solution 2 ml, phosphate buffer pH 7.8, 37° C., 16 hours
Protocol: In order to determine the amount of hydrolysis of the benzyl ester of the C3 carboxyl group by a number of enzymes, the ester was subjected, in aqueous reaction mixture, to the action of the particular enzyme using the following procedure and assay procedure.
Ester solution--Ester (50 mg) was added slowly to stirred 0.25 M, pH 7.8 phosphate buffer (1 ml). When the ester was dissolved distilled water (9 ml) was added.
Enzyme solution--Enzyme (5 mg) was dissolved in distilled water (1 ml).
Enzymation--Enzyme solution (0.2 ml) was added to ester solution (2 ml) and the mixture was incubated at 37° C. for 16 hours.
Assay--When the incubation was complete, the reaction mixture was filtered through glass fibre (Whatman GF/A) and assayed for disappearance of the ester by HPLC.
Extent of conversion of ester to acid is determined as follows: [formula]
In table 1 the extent of conversion of ester to acid is shown for a number of samples of the enzyme of the present invention.

Molecule	Conversion (percentage conversion of the ester to 6[2(2-carboxy)-2-thien-3ylacetamid 6methoxy] penicillin) [%]
B1	61.0
B2	88.6
B3	91.7
B4	100.0
B5	88.8
B6	88.0
B7	89.0
B8	78.0

assay: De-esterification of the benzyl ester using subtilisin A at controlled pH, ester and acid assayed by HPLC; format: biochemical; settings: after 4 hours reaction, 37° C., pH 7.5, subtilisin A 28.16 mg
Protocol: Benzyl 6β-[2-(2-carboxy)-2-thien-3'-ylacetamido 6α-methoxy]penicillanate (0.825 g) was dissolved by adding slowly to stirred 0.25 M, pH 7.8 phosphate buffer (8 ml).
Subtilisin A (28.16 mg) was dissolved in distilled water (10 ml).
Ester solution (3 ml) was added to distilled water (7 ml) and heated to 37° C. in a stirred, water jacketed glass vessel (60 ml) and the pH adjusted to 7.5 by the addition of 1 M NaOH. Subtilisin A solution (10 ml) was heated to 37° C. and added to the ester. The mixture was stirred, the temperature maintained at 37° C. and the pH maintained at 7.5 by the addition of 0.1 M sodium hydroxide.
Samples were removed at appropriate intervals and assayed for ester and acid using the two HPLC systems described in Example 1.

Molecule	conversion of ester to acid [%]
B5	88

From patent publication US4413056A, “Process for the preparation of penicillins and penicillin derivatives” (Beecham Group Limited, priority 1980, dated 1983)
